Data set [1] deals with T1, endogenous mouse LRRK2 (RAW264.7 cells) (mouse, UniProt Q5S006 1-2527).
T1 construct: also called endogenous LRRK2
Description: immunofluorescence colocalisation of GFP-Nb and LRRK2 in RAW264.7 cells. From the text: (§1) To test whether Nbs can trace and visualize endogenous LRRK2 in fixed cells, we generated green fluorescent protein (GFP)-Nb fusions (fluobodies) as described before. Recently, it was shown that LRRK2 is recruited to phagosomes upon induction of phagocytosis in immune cells. Therefore, RAW264.7 cells were transfected with these fluobodies and treated with killed yeast bioparticles “zymosan” to induce phagocytosis.
RAW264.7 cells (ATCC® SC-6003™) were transfected with peGFP-Nb constructs using JetOPTIMUS (Polyplus transfection) for 24 hrs and then stimulated with Zymosan particles (Sigma Aldrich) for 30 mins ([…]). Immunostaining for LRRK2 was performed as reported before. Briefly, cells fixed with 4% (w/v) paraformaldehyde for 30 min, followed by treatment with 100% EtOH at −20° C. Sampled were permeabilized with PBS/0.5% Triton X-100 and blocked with 3% BSA. Primary antibodies (rabbit anti-LRRK2, c41-2, Abcam and mouse anti-GFP, G6539, Sigma Aldrich) were diluted in PBS containing 3% BSA and 0.5% Triton X-100 and incubated overnight at 4° C. […] Cells were washed twice with 1×PBS and mounted with Fluroshield antifade reagent with DAPI (SigmaAldrich). Images were acquired on Zeiss LSM800 confocal laser scanning microscope. Image analysis of z-scan was done using the Zeiss microscope software ZEN.

Data set [2] deals with T2, mScarlet-LRRK2 (Homo sapiens, UniProt Q5S007, M2397T/R50H).
T2 construct: expressed in transfected cells; host or cells: HEK293
T2 sequence (Q5S007 whole entry R50H/M2397T): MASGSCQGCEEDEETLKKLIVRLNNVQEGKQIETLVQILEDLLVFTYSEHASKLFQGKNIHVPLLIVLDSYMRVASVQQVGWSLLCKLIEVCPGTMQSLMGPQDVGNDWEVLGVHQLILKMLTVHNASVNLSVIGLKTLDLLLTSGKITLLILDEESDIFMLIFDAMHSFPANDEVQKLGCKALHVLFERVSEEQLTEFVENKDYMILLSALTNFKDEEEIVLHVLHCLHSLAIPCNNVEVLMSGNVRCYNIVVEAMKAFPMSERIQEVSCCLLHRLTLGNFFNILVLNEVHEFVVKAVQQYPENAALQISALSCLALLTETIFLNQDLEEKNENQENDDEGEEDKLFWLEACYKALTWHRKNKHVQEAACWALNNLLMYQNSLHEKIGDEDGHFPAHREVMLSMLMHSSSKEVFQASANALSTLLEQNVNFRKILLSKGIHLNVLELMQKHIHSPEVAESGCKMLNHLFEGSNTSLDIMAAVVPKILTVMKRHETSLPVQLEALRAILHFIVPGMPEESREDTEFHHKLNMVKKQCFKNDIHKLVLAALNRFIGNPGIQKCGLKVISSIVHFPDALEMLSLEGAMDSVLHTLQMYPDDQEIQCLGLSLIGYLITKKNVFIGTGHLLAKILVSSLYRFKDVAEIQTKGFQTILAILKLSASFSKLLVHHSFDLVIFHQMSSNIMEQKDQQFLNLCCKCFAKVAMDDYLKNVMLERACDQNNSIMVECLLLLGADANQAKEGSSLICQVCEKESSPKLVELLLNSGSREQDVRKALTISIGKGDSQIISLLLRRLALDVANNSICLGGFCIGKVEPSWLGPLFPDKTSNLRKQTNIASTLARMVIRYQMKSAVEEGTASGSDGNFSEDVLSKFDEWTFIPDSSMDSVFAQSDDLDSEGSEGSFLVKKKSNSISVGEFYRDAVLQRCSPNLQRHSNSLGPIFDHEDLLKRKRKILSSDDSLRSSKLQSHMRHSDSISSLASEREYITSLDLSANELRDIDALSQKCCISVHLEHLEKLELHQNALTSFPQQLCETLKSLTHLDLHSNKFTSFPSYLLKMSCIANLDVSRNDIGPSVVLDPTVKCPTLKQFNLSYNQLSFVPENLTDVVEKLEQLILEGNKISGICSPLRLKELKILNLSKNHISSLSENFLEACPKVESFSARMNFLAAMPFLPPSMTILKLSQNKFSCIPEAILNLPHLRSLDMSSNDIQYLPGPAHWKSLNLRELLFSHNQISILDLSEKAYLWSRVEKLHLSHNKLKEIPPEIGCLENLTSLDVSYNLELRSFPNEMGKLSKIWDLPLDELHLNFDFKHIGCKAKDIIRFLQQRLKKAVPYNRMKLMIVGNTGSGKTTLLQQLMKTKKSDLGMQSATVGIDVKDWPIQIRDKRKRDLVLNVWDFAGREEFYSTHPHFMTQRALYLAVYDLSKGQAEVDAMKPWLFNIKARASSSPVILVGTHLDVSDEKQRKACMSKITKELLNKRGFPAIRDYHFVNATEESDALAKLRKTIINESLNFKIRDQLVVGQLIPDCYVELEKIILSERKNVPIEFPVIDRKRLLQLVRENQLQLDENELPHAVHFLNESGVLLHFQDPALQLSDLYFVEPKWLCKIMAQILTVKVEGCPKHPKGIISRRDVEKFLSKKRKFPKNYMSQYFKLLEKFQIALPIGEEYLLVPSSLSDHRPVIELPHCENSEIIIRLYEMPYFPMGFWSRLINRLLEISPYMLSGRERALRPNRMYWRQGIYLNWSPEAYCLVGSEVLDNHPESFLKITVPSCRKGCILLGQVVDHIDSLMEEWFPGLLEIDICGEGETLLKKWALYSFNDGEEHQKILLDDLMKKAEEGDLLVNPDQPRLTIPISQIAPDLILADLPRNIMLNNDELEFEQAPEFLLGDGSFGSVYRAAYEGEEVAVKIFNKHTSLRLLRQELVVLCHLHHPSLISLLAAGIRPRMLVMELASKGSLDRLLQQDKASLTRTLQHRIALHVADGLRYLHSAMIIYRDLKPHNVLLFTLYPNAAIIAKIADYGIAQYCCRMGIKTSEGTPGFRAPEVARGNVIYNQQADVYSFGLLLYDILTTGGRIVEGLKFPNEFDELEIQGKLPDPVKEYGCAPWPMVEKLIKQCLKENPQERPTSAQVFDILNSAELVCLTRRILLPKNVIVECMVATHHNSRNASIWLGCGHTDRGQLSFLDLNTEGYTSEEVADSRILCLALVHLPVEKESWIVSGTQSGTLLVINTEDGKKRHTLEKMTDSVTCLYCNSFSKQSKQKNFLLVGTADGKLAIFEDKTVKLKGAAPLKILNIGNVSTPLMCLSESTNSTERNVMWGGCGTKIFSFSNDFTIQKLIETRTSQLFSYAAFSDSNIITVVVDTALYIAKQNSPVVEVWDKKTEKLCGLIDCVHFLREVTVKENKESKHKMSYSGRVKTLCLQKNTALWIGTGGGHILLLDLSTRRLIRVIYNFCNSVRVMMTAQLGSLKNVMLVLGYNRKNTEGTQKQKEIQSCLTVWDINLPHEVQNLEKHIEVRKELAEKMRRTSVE
Nature of the data set: Confocal microscopy of LRRK2 microtubule localization in HEK293 cells. The conditions noted are these: HEK293 cells co-transfected with mScarlet-LRRK2 and GFP-Nb, treated with 1 μM MLi-2. The format is cell-based. From the text:
HEK 293 cells were co-transfected with the indicated GFP-Nbs and mScarlet-LRRK2. […] Scale bar 5 μm.
FIG. 6. […] Scale bar 5 μm.
The binding of LRRK2 to microtubules subsequently reduces the kinesin—and dynein-mediated transport along microtubules.
Recent structural information has linked LRRK2 microtubule relocalization to the conformation of the kinase domain, with a closed conformation favoring LRRK2 binding to microtubules. As a consequence, the commonly used ATP-competitive type I LRRK2 inhibitors trigger this effect. In addition, it was shown before that the WD40 domain is indispensable for LRRK2-microtubule association.
A HEK293 cell line was cultured in complete media (high-glucose Dulbecco's modified Eagle's medium, 10% fetal bovine serum and Penicillin-Streptomycin-Glutamine (Gibco)). Cells were seeded on 8-well p-Slide(Ibidi) and transfected at a confluency of 50-70% with GFP-Nb and mScarlet-LRRK2 constructs, using JetPEI reagent (Polyplus transfection). […] Data acquisition was done with a ×100 oil-immersion objective with a Zeiss LSM800 confocal laser scanning microscope. Image analysis of z-scan was done using the Zeiss microscope software ZEN.

Data set [3] concerns the target T3, LRRK2(G2019S) (Homo sapiens, UniProt Q5S007, G2019S/M2397T/R50H).
T3 construct: SF tag (FLAG + Twin-Strep); expressed in transfected cells; host or cells: HEK 293T
Description: In cellulo phospho-Rab / LRRK2 autophosphorylation assay in HEK293T cells. The format is cell-based. Further details: key to Functional Group (see FIG. 2d): Group 1: group 1: Nbs that inhibit both LRRK2 autophosphorylation and Rab10 phosphorylation in cells; Group 2: group 2: Nbs that inhibit only Rab10 phosphorylation; Group 3: group 3: Nbs that activate LRRK2 kinase activity; Group 4: group 4: Nbs that have no consistent/clear effect on LRRK2 kinase activity. The conditions noted are these: for LRRK2 autophosphorylation at position S1292 / influence on LRRK2 kinase activity compared to the controls / Rab10 phosphorylation at position T72: HEK 293T cells co-expressing LRRK2(G2019S), Rab29 and Nb-GFP; for influence on LRRK2 kinase activity compared to the controls: Western blot; for Functional Group (see FIG. 2d): classification by effect on in cellulo LRRK2(G2019S) kinase activity; for Rab10 phosphorylation at position T72: endogenous Rab10. As to the method:
(FIGS. 2A-2C) LRRK2(G2019S) and its effector Rab29 were overexpressed together with GFP-fused Nbs (“Fluobody”) in HEK293T cells. A negative control, where no Nb is overexpressed (“No Nb”) is also included. […] In rows labeled “pLRRK2”, LRRK2 pS1292 levels are determined by Western Blot using a site-specific anti-pLRRK2(pS1292) antibody (Abcam, ab203181) (shown at different times of development). In the rows labeled “pRAB10”, endogenous pT72-Rab10 levels are determined by Western Blot using the MJFF/Abcam antibody MJF-R21 (Abcam, ab230261) (shown at different times of development). The three lower rows contain controls of LRRK2 (rat anti-LRRK2, 24D8), Fluobody (rat anti-GFP) and Rab10 (rabbit anti-Rab10) expression levels. (FIG. 2D) Based on the results of panels (FIGS. 2A-2C) the Nbs can be divided into 4 functional groups, with group 1: Nbs that inhibit both LRRK2 autophosphorylation and Rab10 phosphorylation in cells; group 2: Nbs that inhibit only Rab10 phosphorylation; group 3: Nbs that activate LRRK2 kinase activity; group 4: Nbs that have no consistent/clear effect on LRRK2 kinase activity.
To assess the influence of the Nbs on LRRK2 kinase activity we monitored two physiologically and disease relevant activities of LRRK2: phosphorylation of the endogenous substrate Rab10 at position T72 and LRRK2 autophosphorylation at position S1292 [25-30]. […] In our cellular assay we thus co-expressed LRRK2(G2019S), Rab29 and the different Nb-GFP fusions in HEK 293T cells (FIG. 2a-c).
HEK 293T cells were cultured in DMEM (supplemented with 10% Fetal Bovine Serum, […] L-Glutamine and 0.5% Pen/Strep). For the assay, the cells were seeded onto six-well plates and transfected at a confluency of 50-70% with the individual Nb-GFP expression constructs, SF-tagged LRRK2(G2019S) and FLAG-HA Rab29 using a self-made polyethylenimine (PEI)-based transfection reagent. After 48 hrs cells were lysed in lysis buffer [30 mM Tris-HCL (pH7.4), 150 mM NaCl, 0.5% Nonident-P40, complete protease inhibitor cocktail, phosphatase inhibitor cocktail II & III (all Sigma)]. Lysates were cleared by centrifugation at 10,000×g and adjusted to a protein concentration of 1 μg/μl in 1× Laemmli Buffer. Samples were subsequently subjected to SDS PAGE and Western Blot analysis to determine LRRK2 pS1292 and Rab10 T72 phosphorylation levels, as described below. Total LRRK2 and Rab10 levels were determined as a reference.
For western blot analysis, protein samples were separated by SDS-PAGE using NuPAGE 10% Bis-Tris gels (Invitrogen) and transferred onto PVDF membranes (Thermo Fisher). To allow simultaneous probing for LRRK2 on the one hand and Rab and the Nb-GFP fusions on the other hand, membranes were cut horizontally at the 140 kDa MW marker band. After blocking non-specific binding sites with 5% non-fat dry milk in TBST (1 h, RT) (25 mM Tris, pH 7.4, 150 mM NaCl, 0.1% Tween-20), membranes were incubated overnight at 4° C. with primary antibodies at dilutions specified below. Phospho-specific antibodies were diluted in TBST/5% BSA (Roth GmbH). Non-phospho-specific antibodies were diluted in TBST/5% non-fat dry milk powder (BioRad). Phospho-Rab10 levels were determined by the site-specific rabbit monoclonal antibody anti-pRAB10([…]) (Abcam, ab230261) and LRRK2 autophosphorylation was determined by the site-specific rabbit monoclonal antibody anti-pLRRK2(pS1292) (Abcam, ab203181), both at a dilution of 1:2,000. Total LRRK2 levels were determined by the in-house rat monoclonal antibody anti-pan-LRRK2 (clone 24D8; 1:10,000). Total Rab10 levels were determined by the rabbit monoclonal antibody anti-RAB10/ERP13424 (Abcam, ab181367) at a dilution of 1:5,000. Nb-GFP fusion proteins were detected using the rat monoclonal antibody anti-GFP (clone 3H9, ChromoTec) at a dilution of 1:2,000. For detection, goat anti-rat IgG or anti-rabbit IgG HRP-coupled secondary antibodies (Jackson ImmunoResearch) were used at a dilution of 1:15,000 in TBST/5% non-fat dry milk powder. […]
For orientation: In western blotting, separated proteins are transferred to a membrane and probed.

Data set [4] deals with T4, endogenous LRRK2 (Mus musculus, UniProt Q5S006).
T4 construct: endogenous in cells; host or cells: RAW264.7
T4 sequence (Q5S006 whole entry): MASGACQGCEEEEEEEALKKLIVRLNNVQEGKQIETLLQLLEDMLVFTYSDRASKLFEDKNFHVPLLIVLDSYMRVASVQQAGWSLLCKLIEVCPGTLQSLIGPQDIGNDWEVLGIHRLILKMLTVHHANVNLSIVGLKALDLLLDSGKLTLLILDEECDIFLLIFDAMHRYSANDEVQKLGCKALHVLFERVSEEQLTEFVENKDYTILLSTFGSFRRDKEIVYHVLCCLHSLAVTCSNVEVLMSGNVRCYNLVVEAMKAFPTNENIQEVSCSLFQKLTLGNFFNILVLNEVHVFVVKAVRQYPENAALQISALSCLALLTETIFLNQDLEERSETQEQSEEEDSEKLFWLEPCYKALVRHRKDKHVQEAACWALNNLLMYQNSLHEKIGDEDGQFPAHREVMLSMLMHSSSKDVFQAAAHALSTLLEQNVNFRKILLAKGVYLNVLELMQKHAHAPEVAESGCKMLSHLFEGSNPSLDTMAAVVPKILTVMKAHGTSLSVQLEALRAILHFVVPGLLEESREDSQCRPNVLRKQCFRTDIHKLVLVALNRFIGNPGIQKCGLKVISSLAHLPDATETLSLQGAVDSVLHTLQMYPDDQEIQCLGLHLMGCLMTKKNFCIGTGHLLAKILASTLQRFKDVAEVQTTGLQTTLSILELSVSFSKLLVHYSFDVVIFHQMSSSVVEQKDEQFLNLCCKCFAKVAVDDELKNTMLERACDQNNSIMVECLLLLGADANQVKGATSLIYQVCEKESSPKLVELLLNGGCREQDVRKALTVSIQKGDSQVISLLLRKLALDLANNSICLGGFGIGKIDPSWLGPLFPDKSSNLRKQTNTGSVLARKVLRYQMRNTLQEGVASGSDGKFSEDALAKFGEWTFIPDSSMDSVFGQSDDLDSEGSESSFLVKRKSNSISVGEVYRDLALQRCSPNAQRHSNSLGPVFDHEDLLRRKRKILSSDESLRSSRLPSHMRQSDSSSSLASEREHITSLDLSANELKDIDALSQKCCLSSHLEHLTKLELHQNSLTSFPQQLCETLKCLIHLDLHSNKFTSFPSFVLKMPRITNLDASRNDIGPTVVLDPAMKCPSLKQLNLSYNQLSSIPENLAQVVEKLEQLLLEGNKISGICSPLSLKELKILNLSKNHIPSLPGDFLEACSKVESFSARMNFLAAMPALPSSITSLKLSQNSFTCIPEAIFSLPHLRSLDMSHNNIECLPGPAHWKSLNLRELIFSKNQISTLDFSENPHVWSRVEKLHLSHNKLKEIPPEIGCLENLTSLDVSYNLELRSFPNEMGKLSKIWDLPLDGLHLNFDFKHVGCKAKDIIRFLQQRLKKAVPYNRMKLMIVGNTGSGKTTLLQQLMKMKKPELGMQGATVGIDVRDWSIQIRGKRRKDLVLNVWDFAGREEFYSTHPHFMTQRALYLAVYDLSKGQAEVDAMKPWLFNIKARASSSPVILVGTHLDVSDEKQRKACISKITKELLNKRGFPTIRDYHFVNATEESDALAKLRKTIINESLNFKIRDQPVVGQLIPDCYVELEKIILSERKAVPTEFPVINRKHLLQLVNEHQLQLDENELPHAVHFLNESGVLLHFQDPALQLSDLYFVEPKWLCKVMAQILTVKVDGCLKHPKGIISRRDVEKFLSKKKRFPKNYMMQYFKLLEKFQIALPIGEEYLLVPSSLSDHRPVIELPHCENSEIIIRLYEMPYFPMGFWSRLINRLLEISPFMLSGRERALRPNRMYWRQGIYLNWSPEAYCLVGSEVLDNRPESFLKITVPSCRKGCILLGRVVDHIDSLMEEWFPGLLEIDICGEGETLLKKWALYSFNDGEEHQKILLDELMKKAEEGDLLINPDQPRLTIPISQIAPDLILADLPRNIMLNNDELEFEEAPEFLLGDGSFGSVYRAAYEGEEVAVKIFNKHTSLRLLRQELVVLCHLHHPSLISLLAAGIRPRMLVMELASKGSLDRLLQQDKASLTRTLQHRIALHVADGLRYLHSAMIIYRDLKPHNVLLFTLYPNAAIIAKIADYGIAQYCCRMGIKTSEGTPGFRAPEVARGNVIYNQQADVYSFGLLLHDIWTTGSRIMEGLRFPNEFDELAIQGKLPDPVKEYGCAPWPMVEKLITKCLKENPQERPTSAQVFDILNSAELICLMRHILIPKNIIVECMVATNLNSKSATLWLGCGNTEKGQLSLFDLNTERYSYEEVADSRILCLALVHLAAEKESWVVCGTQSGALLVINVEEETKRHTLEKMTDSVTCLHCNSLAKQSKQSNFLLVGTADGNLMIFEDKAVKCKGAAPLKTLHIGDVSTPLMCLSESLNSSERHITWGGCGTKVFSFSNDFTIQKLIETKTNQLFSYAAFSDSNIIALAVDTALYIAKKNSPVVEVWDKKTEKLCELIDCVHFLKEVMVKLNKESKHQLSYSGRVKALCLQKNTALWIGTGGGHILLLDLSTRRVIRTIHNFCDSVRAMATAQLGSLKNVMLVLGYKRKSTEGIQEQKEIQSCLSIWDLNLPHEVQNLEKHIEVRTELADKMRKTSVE
Description: Colocalization of GFP-Nbs with endogenous LRRK2 on zymosan-containing phagosomes in RAW264.7 cells. The conditions noted are these: RAW264.7 cells transfected with GFP-Nbs, zymosan 30 mins, fixed cells. The format is cell-based. As to the method: RAW264.7 cells were transfected with GFP-fused Nbs and treated with Zymosan for 30 mins. Recruitment of LRRK2 and Nbs to the phagosomes was analyzed by immunofluorescence. FIG. 16A, images for Nb38, Nb22, Nb23, Nb40, No Nb, or Irrelevant (IRR) Nb treatments; FIG. 16B, images for Nb36, Nb42, Nb17, Nb39, Nb1, and Nb6 treatments. Scale bar=10 μm.
as §1
RAW264.7 cells (ATCC® SC-6003™) were transfected with peGFP-Nb constructs using JetOPTIMUS (Polyplus transfection) for 24 hrs and then stimulated with Zymosan particles (Sigma Aldrich) for 30 mins ([…]). Immunostaining for LRRK2 was performed as reported before. Briefly, cells fixed with 4% (w/v) paraformaldehyde for 30 min, followed by treatment with 100% EtOH at −20° C. Sampled were permeabilized with PBS/0.5% Triton X-100 and blocked with 3% BSA. Primary antibodies (rabbit anti-LRRK2, c41-2, Abcam and mouse anti-GFP, G6539, Sigma Aldrich) were diluted in PBS containing 3% BSA and 0.5% Triton X-100 and incubated overnight at 4° C. After three 5-min washes with PBS, secondary fluorescently labeled antibodies (anti-rabbit-Alexa fluor 568 and anti-mouse-Alexa fluor 488, Invitrogen) were added in a similar manner to primary antibodies and incubated for 1 hour at room temperature. Cells were washed twice with 1×PBS and mounted with Fluroshield antifade reagent with DAPI (SigmaAldrich). Images were acquired on Zeiss LSM800 confocal laser scanning microscope. Image analysis of z-scan was done using the Zeiss microscope software ZEN.

T3 sequence (Q5S007 whole entry R50H/G2019S/M2397T): as the sequence (Q5S007 whole entry R50H/M2397T) above, with G2019S counted along it
T1 sequence (Q5S006 whole entry): as the sequence (Q5S006 whole entry) above

B1: Nb38 (CA14133)-GFP fusion (VHH)
VHH: QVQLVESGGGLVQPGGSLRLSCAASGSIRSIATSAWYRQPPGKQRELVAGISSGTTTNYADSVKGRFTISRDNAKNTVYLQMNSLKPEDTAVYYCHAWISGTWISGQGTQVTVSS
notes: expressed in cells as intrabody; also called GFP-Nb38; fluobody Nb38; not shown: enhanced GFP fused to the C-terminus of the Nb (pEGFP-N1)
Take B1: the binding result in data set [1] was “binds”.

B2: Nb17: LRRK2-specific Nanobody, SEQ ID NO: 5 (protein)
VHH: MAQVQLVESGGGLVQPGGSLRLSCAASGSNIGYMAWYRQAPGSQRELVARIASGGSANYADSVKGRFTISRDNVKNTVYLHMNSLKPVDTAVYYCHADAWYNSRWSDYWGQGTQVTVSS
modifications: Nanobody CA13606
With B2, in data set [2], the “effect on MLi-2-induced recruitment of LRRK2 to microtubules” value is “rescuing effect is most prominent”. Also, in data set [3], the “LRRK2 autophosphorylation at position S1292” value is recorded as “inhibiting S1292 phosphorylation at a lesser extent”, the “influence on LRRK2 kinase activity compared to the controls” value is given as “strongly decreased LRRK2 autophosphorylation and/or Rab10 phosphorylation”, the “Functional Group (see FIG. 2d)” value is “Group 2” and the “Rab10 phosphorylation at position T72” value is listed as “inhibit Rab10 phosphorylation”. For the same molecule, the “colocalization with endogenous LRRK2 on phagosomes” value in data set [4] was “LRRK2 recruitment to phagosomes was slightly detectable”.

B3: Nb23 (CA13612)-GFP fusion (VHH)
VHH: QVQLVESGGGLVQAGGSLRLSCAASGRTFSRYTMGWFRQAPGKDREFVARITTSGAVTTYADSAKGRFTISRDNAKNTVYLQMNTLKPEDTAVYYCAAGQGQLSSQSRFVDYWGQGTQVTVSS
notes: expressed in cells as intrabody; also called GFP-Nb23; fluobody Nb23; not shown: enhanced GFP fused to the C-terminus of the Nb (pEGFP-N1)
For the molecule B3, the binding result in data set [1] is recorded as “binds”.

B4: Nb40: LRRK2-specific Nanobody, SEQ ID NO: 4 (protein)
VHH: MAQVQLVESGGGLVQPGGSLRLSCVASGTIYAINRMGWYRQAPGKQRELVALITLGGGTNYGDSVKGRFTISRDNAKNTGYLQMNSLKPEDTAVYYCKVESSGYTDVFWGQGTQVTVSS
modifications: Nanobody CA14135
Regarding B4, the “effect on MLi-2-induced recruitment of LRRK2 to microtubules” value in data set [2] is “rescuing effect is most prominent”. In data set [3], the “LRRK2 autophosphorylation at position S1292” value was “inhibiting S1292 phosphorylation at a lesser extent”, the “influence on LRRK2 kinase activity compared to the controls” value is recorded as “strongly decreased LRRK2 autophosphorylation and/or Rab10 phosphorylation”, the “Functional Group (see FIG. 2d)” value is recorded as “Group 2” and the “Rab10 phosphorylation at position T72” value is given as “inhibit Rab10 phosphorylation”. Moreover, the “colocalization with endogenous LRRK2 on phagosomes” value in data set [4] is given as “clearly colocalized with LRRK2 on zymosan-containing phagosomes”.

B5: Nb22 (CA13611)-GFP fusion (VHH)
VHH: QVQLVESGGGLVQAGGSLRLSCAASGRTFSSYTMGWFRQAPGKEREFVAAIRWSGGSTYYADSVKGRFTISRDNAKNTVYLQMNSLKPEDTAVYYCAASDRGGFIATSGGWMDYWGKGTQVTVSS
notes: expressed in cells as intrabody; also called GFP-Nb22; fluobody Nb22; not shown: enhanced GFP fused to the C-terminus of the Nb (pEGFP-N1)
B5: the binding result in data set [1] is reported as “binds”.

B6: Nb40 (CA14135)-GFP fusion (VHH)
VHH: QVQLVESGGGLVQPGGSLRLSCVASGTIYAINRMGWYRQAPGKQRELVALITLGGGTNYGDSVKGRFTISRDNAKNTGYLQMNSLKPEDTAVYYCKVESSGYTDVFWGQGTQVTVSS
notes: expressed in cells as intrabody; also called GFP-Nb40; fluobody Nb40; not shown: enhanced GFP fused to the C-terminus of the Nb (pEGFP-N1)
Consider B6, for which the binding result in data set [1] is reported as “binds”.

The values above are taken from patent US20230087785A1, “Leucine-Rich Repeat Kinase 2 Allosteric Modulators” (VIB VZW, priority 2020, published 2023).
